One block for each molecule: values may come before it.
How the values were obtained:
[1] = molecular target: Fc receptor on THP-1 cells; experiment: cell-based or functional assay
[2] = molecular target: T1, BSA (UniProt P02769 25-607); experiment: ELISA, BSA-coated Maxisorb plate, dilutions of fusion protein, anti-human IgG1 immunodetection complex, A405
T1 construct: also called BSA coating alone; BSA+wash
Experimental: Known RAGE ligands were coated onto the surface of Maxisorb plates at a concentration of 5 micrograms per well. Plates were incubated at 4° C. overnight. Following ligand incubation, plates were aspirated and a blocking buffer of 1% BSA in 50 mM imidizole buffer (pH 7.2) was added to the plates for 1 hour at room temperature. The plates were then aspirated and/or washed with wash buffer (20 mM Imidizole, 150 mM NaCl, 0.05% Tween-20, 5 mM CaCl₂ and 5 mM MgCl₂, pH 7.2). […] The RAGE fusion protein was added at increasing dilutions of the initial sample. The RAGE fusion protein was allowed to incubate with the immobilized ligand at 37° C. for one hour after which the plate was washed and assayed for binding of the RAGE fusion protein. Binding was detected by the addition of an immunodetection complex containing a monoclonal mouse anti-human IgG1 diluted 1:11,000 to a final assay concentration (FAC) of 21 ng/100 μL, a biotinylated goat anti-mouse IgG diluted 1:500, to a FAC of […], and an avidin-linked alkaline phosphatase. […] Binding of the complex to the immobilized RAGE fusion protein was quantified by measuring conversion of PNPP to para-nitrophenol (PNP) which was measured spectrophotometrically at 405 nm.

T1 sequence (P02769 25-607 limits assumed): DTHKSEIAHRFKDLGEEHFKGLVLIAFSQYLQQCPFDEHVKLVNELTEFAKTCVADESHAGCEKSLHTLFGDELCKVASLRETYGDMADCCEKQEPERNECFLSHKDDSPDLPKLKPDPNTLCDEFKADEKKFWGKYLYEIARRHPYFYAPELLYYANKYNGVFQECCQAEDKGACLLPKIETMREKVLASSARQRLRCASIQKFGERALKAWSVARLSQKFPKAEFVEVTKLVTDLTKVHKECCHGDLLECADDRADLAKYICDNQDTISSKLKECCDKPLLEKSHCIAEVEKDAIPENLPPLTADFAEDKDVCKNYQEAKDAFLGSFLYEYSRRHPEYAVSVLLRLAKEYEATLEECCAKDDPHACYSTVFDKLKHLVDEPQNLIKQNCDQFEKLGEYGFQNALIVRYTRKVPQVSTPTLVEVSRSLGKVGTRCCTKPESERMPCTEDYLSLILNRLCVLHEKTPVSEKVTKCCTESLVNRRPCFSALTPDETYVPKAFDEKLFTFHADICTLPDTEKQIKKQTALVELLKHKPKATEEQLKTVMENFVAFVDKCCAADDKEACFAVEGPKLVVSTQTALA

TNF-α secreted by THP-1 cells on wells coated with 10 ug/well heat aggregated protein [1]: > 40 ng/well
Molecule: human IgG1 (heat aggregated) (antibody)

binding result [2]: no binding
B1: RAGE fusion protein TTP-3000 (Fc fusion)
chain: QNITARIGEPLVLKCKGAPKKPPQRLEWKLNTGRTEAWKVLSPQGGGPWDSVARVLPNGSLFLPAVGIQDEGIFRCQAMNRNGKETKSNYRVRVYQIPGKPEIVDSASELTAGPSVFLFPPKPKDTLMISRTPEVTCVVVDVSHEDPEVKFNWYVDGVEVHNAKTKPREEQYNSTYRVVSVLTVLHQDWLNGKEYKCKVSNKALPAPIEKTISKAKGQPREPQVYTLPPSRDELTKNQVSLTCLVKGFYPSDIAVEWESNGQPENNYKTTPPVLDSDGSFFLYSKLTVDKSRWQQGNVFSCSVMHEALHNHYTQKSLSLSPGK
modifications: N-terminal residue may be glutamine (Q) or pyroglutamic acid (pE) or a mixture thereof; C-terminal residue may be cleaved off
notes: the N-terminus of TTP-3000 was not confirmed by experiment; also called TT3; three domain RAGE fusion protein

binding result [2]: no binding
B2: RAGE fusion protein TTP-4000 (Fc fusion)
chain: QNITARIGEPLVLKCKGAPKKPPQRLEWKLNTGRTEAWKVLSPQGGGPWDSVARVLPNGSLFLPAVGIQDEGIFRCQAMNRNGKETKSNYRVRVYQIPGKPEIVDSASELTAGVPNKVGTCVSEGSYPAGTLSWHLDGKPLVPNEKGVSVKEQTRRHPETGLFTLQSELMVTPARGGDPRPTFSCSFSPGLPRHRALRTAPIQPRVWEPVPLEEVQLVVEPEGGAVAPPSVFLFPPKPKDTLMISRTPEVTCVVVDVSHEDPEVKFNWYVDGVEVHNAKTKPREEQYNSTYRVVSVLTVLHQDWLNGKEYKCKVSNKALPAPIEKTISKAKGQPREPQVYTLPPSRDELTKNQVSLTCLVKGFYPSDIAVEWESNGQPENNYKTTPPVLDSDGSFFLYSKLTVDKSRWQQGNVFSCSVMHEALHNHYTQKSLSLSPGK
modifications: N-terminal residue glutamine (Q) or pyroglutamic acid (pE) or a mixture thereof; glycosylation sites at N2 and N288 (numbering of SEQ ID NO: 34 or 56); C-terminal residue of CH3 may be cleaved off
notes: Produced in CHO cells; also called TT4; four domain RAGE fusion protein

From patent US20080045455A1 (TRANSTECH PHARMA, published 2008)
